Test results published in patent publication US20160355587A1 (CYTOMX THERAPEUTICS, published 2016).

T1: human CD166 protein (human, UniProt Q13740 28-526, limits assumed)
T1 construct: Isolated human CD166 protein coated on ELISA plates; also called ALCAM
T1 sequence (looked up): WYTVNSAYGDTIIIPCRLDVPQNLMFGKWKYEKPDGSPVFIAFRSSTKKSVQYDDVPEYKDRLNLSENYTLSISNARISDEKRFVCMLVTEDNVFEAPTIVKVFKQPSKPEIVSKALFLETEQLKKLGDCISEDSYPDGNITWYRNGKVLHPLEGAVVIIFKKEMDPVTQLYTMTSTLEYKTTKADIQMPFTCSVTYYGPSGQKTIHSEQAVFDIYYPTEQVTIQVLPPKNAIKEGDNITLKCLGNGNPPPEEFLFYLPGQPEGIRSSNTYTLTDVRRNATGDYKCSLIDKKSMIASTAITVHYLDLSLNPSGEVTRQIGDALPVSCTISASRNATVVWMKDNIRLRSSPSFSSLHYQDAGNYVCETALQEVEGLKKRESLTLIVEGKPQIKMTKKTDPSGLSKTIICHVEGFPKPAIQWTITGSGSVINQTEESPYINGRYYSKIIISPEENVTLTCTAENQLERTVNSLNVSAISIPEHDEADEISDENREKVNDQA


How the values were obtained:
human CD166 protein [1] = molecular target: T1, human CD166 protein; assay: ELISA; relative to parental CD166 M9 vk1/HcB
human CD166 protein [2] = molecular target: T1, human CD166 protein; assay: ELISA, human CD166 protein coated; apparent Kd
human CD166 protein [3] = molecular target: T1, human CD166 protein; assay: ELISA, human CD166 protein coated, anti-human FAB-peroxidase

Binder	Fold Increase in Kd (human CD166 protein [1]) [fold]	Kd (human CD166 protein [2]) [nM]	binding result (human CD166 protein [3])
CD166-16522-2001 (antibody) chain 1: QITLKESGPTLVKPTQTLTLTCTFSGFSLSTYGMGVGWIRQPPGKALEWLANIWWSEDKHYSPSLKSRLTITKDTSKNQVVLTMTNMDPVDTATYYCVQIDYGNDYAFTYWGQGTLVTVSS chain 2: QGQSGQGLEGWCLHPLCLWGAGGGGSSGGSISSGLLSGRSDNHGGGSDIVMTQSPLSLPVTPGEPASISCRSSKSLLHSNGITYLYWYLQKPGQSPQLLIYQMSNLASGVPDRFSGSGSGTDFTLKISRVEAEDVGVYYCAQNLELPYTFGQGTKLEIK	95	424	
CD166-16522.14-2001 (antibody) chain 1: QITLKESGPTLVKPTQTLTLTCTFSGFSLSTYGMGVGWIRQPPGKALEWLANIWWSEDKHYSPSLKSRLTITKDTSKNQVVLTMTNMDPVDTATYYCVQIDYGNDYAFTYWGQGTLVTVSS chain 2: QGQSGQGLEGACLHPLCLWGAGGGGSSGGSISSGLLSGRSDNHGGGSDIVMTQSPLSLPVTPGEPASISCRSSKSLLHSNGITYLYWYLQKPGQSPQLLIYQMSNLASGVPDRFSGSGSGTDFTLKISRVEAEDVGVYYCAQNLELPYTFGQGTKLEIK	95	422	
CD166-7614.7-2001 (antibody) chain 1: QITLKESGPTLVKPTQTLTLTCTFSGFSLSTYGMGVGWIRQPPGKALEWLANIWWSEDKHYSPSLKSRLTITKDTSKNQVVLTMTNMDPVDTATYYCVQIDYGNDYAFTYWGQGTLVTVSS chain 2: QGQSGQGLCHPLALSAWESCSSGGGSSGGSISSGLLSGRSDNHGGGSDIVMTQSPLSLPVTPGEPASISCRSSKSLLHSNGITYLYWYLQKPGQSPQLLIYQMSNLASGVPDRFSGSGSGTDFTLKISRVEAEDVGVYYCAQNLELPYTFGQGTKLEIK	139	619	
CD166-7614.9-2001 (antibody) chain 1: QITLKESGPTLVKPTQTLTLTCTFSGFSLSTYGMGVGWIRQPPGKALEWLANIWWSEDKHYSPSLKSRLTITKDTSKNQVVLTMTNMDPVDTATYYCVQIDYGNDYAFTYWGQGTLVTVSS chain 2: QGQSGQGLCHPLVLSAAESCSSGGGSSGGSISSGLLSGRSDNHGGGSDIVMTQSPLSLPVTPGEPASISCRSSKSLLHSNGITYLYWYLQKPGQSPQLLIYQMSNLASGVPDRFSGSGSGTDFTLKISRVEAEDVGVYYCAQNLELPYTFGQGTKLEIK	120	534	
CD166-16522.16-2001 (antibody) chain 1: QITLKESGPTLVKPTQTLTLTCTFSGFSLSTYGMGVGWIRQPPGKALEWLANIWWSEDKHYSPSLKSRLTITKDTSKNQVVLTMTNMDPVDTATYYCVQIDYGNDYAFTYWGQGTLVTVSS chain 2: QGQSGQGLEGWCLAPLCLWGAGGGGSSGGSISSGLLSGRSDNHGGGSDIVMTQSPLSLPVTPGEPASISCRSSKSLLHSNGITYLYWYLQKPGQSPQLLIYQMSNLASGVPDRFSGSGSGTDFTLKISRVEAEDVGVYYCAQNLELPYTFGQGTKLEIK	11	47.4	
CD166-7614.5-2001 (antibody) chain 1: QITLKESGPTLVKPTQTLTLTCTFSGFSLSTYGMGVGWIRQPPGKALEWLANIWWSEDKHYSPSLKSRLTITKDTSKNQVVLTMTNMDPVDTATYYCVQIDYGNDYAFTYWGQGTLVTVSS chain 2: QGQSGQGLCHALVLSAWESCSSGGGSSGGSISSGLLSGRSDNHGGGSDIVMTQSPLSLPVTPGEPASISCRSSKSLLHSNGITYLYWYLQKPGQSPQLLIYQMSNLASGVPDRFSGSGSGTDFTLKISRVEAEDVGVYYCAQNLELPYTFGQGTKLEIK	112	495	
CD166-7614.12-2001 (antibody) chain 1: QITLKESGPTLVKPTQTLTLTCTFSGFSLSTYGMGVGWIRQPPGKALEWLANIWWSEDKHYSPSLKSRLTITKDTSKNQVVLTMTNMDPVDTATYYCVQIDYGNDYAFTYWGQGTLVTVSS chain 2: QGQSGQGHPLVLGGGSSGGSISSGLLSGRSDNHGGGSDIVMTQSPLSLPVTPGEPASISCRSSKSLLHSNGITYLYWYLQKPGQSPQLLIYQMSNLASGVPDRFSGSGSGTDFTLKISRVEAEDVGVYYCAQNLELPYTFGQGTKLEIK	75	332	
CD166-7614.10-2001 (antibody) chain 1: QITLKESGPTLVKPTQTLTLTCTFSGFSLSTYGMGVGWIRQPPGKALEWLANIWWSEDKHYSPSLKSRLTITKDTSKNQVVLTMTNMDPVDTATYYCVQIDYGNDYAFTYWGQGTLVTVSS chain 2: QGQSGQGLCHPLVLSAWASCSSGGGSSGGSISSGLLSGRSDNHGGGSDIVMTQSPLSLPVTPGEPASISCRSSKSLLHSNGITYLYWYLQKPGQSPQLLIYQMSNLASGVPDRFSGSGSGTDFTLKISRVEAEDVGVYYCAQNLELPYTFGQGTKLEIK	154	685	

Now from value to binder:

Fold Increase in Kd (human CD166 protein [1]) [fold]	Kd (human CD166 protein [2]) [nM]	binding result (human CD166 protein [3])	Binder
101	448		CD166-16522.15-2001 (antibody) chain 1: QITLKESGPTLVKPTQTLTLTCTFSGFSLSTYGMGVGWIRQPPGKALEWLANIWWSEDKHYSPSLKSRLTITKDTSKNQVVLTMTNMDPVDTATYYCVQIDYGNDYAFTYWGQGTLVTVSS chain 2: QGQSGQGLEGWCAHPLCLWGAGGGGSSGGSISSGLLSGRSDNHGGGSDIVMTQSPLSLPVTPGEPASISCRSSKSLLHSNGITYLYWYLQKPGQSPQLLIYQMSNLASGVPDRFSGSGSGTDFTLKISRVEAEDVGVYYCAQNLELPYTFGQGTKLEIK
18	77.7		CD166-7614.13-2001 (antibody) chain 1: QITLKESGPTLVKPTQTLTLTCTFSGFSLSTYGMGVGWIRQPPGKALEWLANIWWSEDKHYSPSLKSRLTITKDTSKNQVVLTMTNMDPVDTATYYCVQIDYGNDYAFTYWGQGTLVTVSS chain 2: QGQSGQGHPLGGGSSGGSISSGLLSGRSDNHGGGSDIVMTQSPLSLPVTPGEPASISCRSSKSLLHSNGITYLYWYLQKPGQSPQLLIYQMSNLASGVPDRFSGSGSGTDFTLKISRVEAEDVGVYYCAQNLELPYTFGQGTKLEIK
14	61.6		CD166-16522.17-2001 (antibody) chain 1: QITLKESGPTLVKPTQTLTLTCTFSGFSLSTYGMGVGWIRQPPGKALEWLANIWWSEDKHYSPSLKSRLTITKDTSKNQVVLTMTNMDPVDTATYYCVQIDYGNDYAFTYWGQGTLVTVSS chain 2: QGQSGQGLEGWCLHALCLWGAGGGGSSGGSISSGLLSGRSDNHGGGSDIVMTQSPLSLPVTPGEPASISCRSSKSLLHSNGITYLYWYLQKPGQSPQLLIYQMSNLASGVPDRFSGSGSGTDFTLKISRVEAEDVGVYYCAQNLELPYTFGQGTKLEIK
123	544		CD166-7614.11-2001 (antibody) chain 1: QITLKESGPTLVKPTQTLTLTCTFSGFSLSTYGMGVGWIRQPPGKALEWLANIWWSEDKHYSPSLKSRLTITKDTSKNQVVLTMTNMDPVDTATYYCVQIDYGNDYAFTYWGQGTLVTVSS chain 2: QGQSGQGCHPLVLSAWESCGGGSSGGSISSGLLSGRSDNHGGGSDIVMTQSPLSLPVTPGEPASISCRSSKSLLHSNGITYLYWYLQKPGQSPQLLIYQMSNLASGVPDRFSGSGSGTDFTLKISRVEAEDVGVYYCAQNLELPYTFGQGTKLEIK
		binds	CD166-M9_vK3b/HcB (antibody, V domains shown, Humanized M9) VH: QITLKESGPTLVKPTQTLTLTCTFSGFSLSTYGMGVGWIRQPPGKALEWLANIWWSEDKHYSPSLKSRLTITKDTSKNQVVLTMTNMDPVDTATYYCVQIDYGNDYAFTYWGQGTLVTVSS VL: DIVMTQSPLSLPVTPGEPASISCRSSQSLLHSNGITYLYWYLQKPGQSPQLLIYQMSNRASGVPDRFSSSGSGTDFTLKISRVEAEDVGVYYCAQNLELPYTFGQGTKLEIK
		binds	CD166-M9_vk3a/HcB (antibody, V domains shown, Humanized M9) VH: QITLKESGPTLVKPTQTLTLTCTFSGFSLSTYGMGVGWIRQPPGKALEWLANIWWSEDKHYSPSLKSRLTITKDTSKNQVVLTMTNMDPVDTATYYCVQIDYGNDYAFTYWGQGTLVTVSS VL: DIVMTQSPLSLPVTPGEPASISCRSSQSLLHSNGITYLYWYLQKPGQSPQLLIYQMSNRASGVPDRFSGSGSGTDFTLKISRVEAEDVGVYYCAQNLELPYTFGQGTKLEIK
		binds	CD166-M9_vK2/HcC (antibody, V domains shown, Humanized M9) VH: QITLKESGPTLVKPTQTLTLTCTFSGFSLSTYGMGVGWIRQPPGKALEWLANIWWSEDKHYSPSLKSRLTITKDTSKNQVVLTITNVDPVDTATYYCVQIDYGNDYAFTYWGQGTLVTVSS VL: DIVMTQSPLSLPVTPGEPASISCRSSKSLLHSNGITYLYWYLQKPGQSPQLLIYQMSNLASGVPDRFSSSGSGTDFTLKISRVEAEDVGVYYCAQNLELPYTFGQGTKLEIK
		binds	CD166-M9_vK3b/HcC (antibody, V domains shown, Humanized M9) VH: QITLKESGPTLVKPTQTLTLTCTFSGFSLSTYGMGVGWIRQPPGKALEWLANIWWSEDKHYSPSLKSRLTITKDTSKNQVVLTITNVDPVDTATYYCVQIDYGNDYAFTYWGQGTLVTVSS VL: DIVMTQSPLSLPVTPGEPASISCRSSQSLLHSNGITYLYWYLQKPGQSPQLLIYQMSNRASGVPDRFSSSGSGTDFTLKISRVEAEDVGVYYCAQNLELPYTFGQGTKLEIK
		binds	CD166-M9_vK3a/HcC (antibody, V domains shown, Humanized M9) VH: QITLKESGPTLVKPTQTLTLTCTFSGFSLSTYGMGVGWIRQPPGKALEWLANIWWSEDKHYSPSLKSRLTITKDTSKNQVVLTITNVDPVDTATYYCVQIDYGNDYAFTYWGQGTLVTVSS VL: DIVMTQSPLSLPVTPGEPASISCRSSQSLLHSNGITYLYWYLQKPGQSPQLLIYQMSNRASGVPDRFSGSGSGTDFTLKISRVEAEDVGVYYCAQNLELPYTFGQGTKLEIK
